Assay: yeast display, Sf9 membrane polyspecificity reagent, FACS + sequencing; frameworks hold sequencing errors
Outline: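 A synthetic nanobody library was expressed on Saccharomyces cerevisiae BJ5465 by galactose induction for 36–48 hours. The library was stained for 1 hour at 4 °C with 10% biotinylated, detergent-solubilized Sf9 membrane reagent and enriched with streptavidin microbeads before FACS. Low and high (top ~1%) gates were set on anti-HA fluorescence for expression and streptavidin fluorescence for reagent binding, and each polyreactivity label reflects the gate of origin.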

Row | Sequence | polyreactivity (PSR sort gate)
1 | QVQLVESGGGLVQAGGSLRLSCAASRLTFNTYTIGWYRQAPGKERELVAGRSKSGGRTYYADSVKGRFTISRDNAKITVYLQMNILKAEDTSVYYCSTRSTTDFYWGHGTQVTVSS | high polyreactivity
2 | QVQLVESGGGLVQAGGSLRLSCAASRRIFASNAMGWNSQAPGKERELVAAITSSGGSTYYADSVKGRFTISLDNAKNTVYLQMNSLKPEDTAVYYCNAGDYYYRLVTAKPSSYDYWGQGTQVTVSS | high polyreactivity
3 | QVQLVESGGGLVQAGGSLRLSCAASRRIFSRYAMGWYRQAPGKERELVAAITGRGGSTYYADSVKGRFTISRDNAKNTVYLQMNSLKPEDTAVYYCAADVPPRRNFVKYYYWGQGTQVTVSS | high polyreactivity
4 | QVQLVESGGGLVQAGGSLRLSCAASRRTFIANAMGWYRQAPGNGREWVAVITLNGGSTYYADSVKRRFTLSRDNAKNTVYLQMNSLKPEDTAVYYCAADVYWDYYWGQGTQVTVSS | low polyreactivity
5 | QVQLVESGGGLVQAGGSLRLSCAASRRTFYYAMGWYRQAPWKERYADSVKGRFTISRDNAKNTVYLQMNSLKPVDTAVYYCAAKVPEPPSLDESDYWGQGTQVTVSS | low polyreactivity
6 | QVQLVESGGGLVQAGGSLRLSCAASRRTYKYNAMGWYRQAPGKEREVVAAISRSGGSTYYADSVKGRFTISRDNAKNTVYLQMNILKPEDTAVYDCAVSYRPGGYRRHFRYVYWGQGTQVTVSS | high polyreactivity
7 | QVQLVESGGGLVQAGGSLRLSCAASRSIFGIYTMGWSRQEPGKERELVAAIKSGGSTNYADSVKGRFTITRDNAKNTVYLQMNSKKPEDTAVYYCNAYIHPPGPRVYSREYDYWGQGTQVTVSS | low polyreactivity
8 | QVQLVESGGGLVQAGGSLRLSCAASRSIFQSYDMGWYRQAPGKERELVAAISWSGSTTYYADSVKGRFTISRDNAKNTVYLQMNSLKPEDTAVYYCAFDSNTPDWWAVIYGYWGQGTQVTVSS | low polyreactivity
9 | QVQLVESGGGLVQAGGSLRLSCAASRSIFVRNAMGWYRPAPGKERELVAAITSDVNTYYADSVKGRFTISRDNAKNTVYLQMNSLKPEDTAVYYCAKGVTSQPNDPAPFPRYEYWGQGTQVTVSS | low polyreactivity
10 | QVQLVESGGGLVQAGGSLRLSCAASRSTFRDNAMGWYRQAPGKVRELVAGITRGGITNYADSVKGRYTISRDNAKNTVYLQMNSLKPEDTEVYYFAAEVTGTYYDYDYWGQGTQVTVSS | low polyreactivity
11 | QVQLVESGGGLVQAGGSLRLSCAASTYLRLLMLWDGIDLRLGKKGSWLTLLTLVVNSTYYADSVKGRFTISRDNAKNTVFLQMNSLKPEDTAVYYCNVDPYGTYARTHLEYWGQGTQVTVSS | low polyreactivity
12 | QVQLVESGGGLVQAGGSLRLSCAASVFIFPHYTMGWYRQAPGKERELVAAISSSGGSTYYADSVKGRFTISRYNAKNTVYLQMNSLKPEDSADYYCPGPLPYYGQYDYWGQGTQVTVSS | low polyreactivity
13 | QVQLVESGGGLVQAGGSLRLSCAASVFTFAPNAMGWYRQAPGKERELVAVIDSGGSTNYADSVKGRFTISRDNAKNTVYLQMNSLKPEDTAVYYCATDVPLDYYWLWDDYWGQGTQVTVSS | low polyreactivity
14 | QVQLVESGGGLVQAGGSLRLSCAASVFTFNDYAMGWYRQAPGKERELVAAIDWSGGRTYYADSVKGRFTISRDNAKNTVYLQMNSLKPEDTAVYYCAAVLYSRLYWYRLDYWGQGTQVTVSS | low polyreactivity
15 | QVQLVESGGGLVQAGGSLRLSCAASVFTFTKYAMGWYRQAPGKERELVAAITRRGGRTYYADSVKGRFTISRDNAKNTVYLQMNSLKPEDTAVYYFNADIIWGSVSNGSEYDYWGQGTQVTVSS | high polyreactivity
16 | QVQLVESGGGLVQAGGSLRLSCAASVFTSLIYAMGWYRPAPGKERELVATLTWGGGSTYADSVKGRLTISRDNAQNTVYLQMNSLKPVDTAVYDCKADIYDSWVYATVYSDRYDYWGQGTQVTVSS | low polyreactivity
17 | QVQLVESGGGLVQAGGSLRLSCAASVFYPYAMGWYRQAPGKERELVAAISWSGGRTYYADSVKGRFTISRDNAKNTVYLQMNSLKPEDTAVYYCNKVYSSYRVYDFNYWGQGTQVTVSS | high polyreactivity
18 | QVQLVESGGGLVQAGGSLRLSCAASVIICPDNAMGWDRPAPGKERELVAAITQSRGSTFYADSVKGRFTISRDNAKNTVYLQMKSLKPEDTAVYYCNAYRKFRYWGQGTQVTVSS | high polyreactivity
19 | QVQLVESGGGLVQAGGSLRLSCAASVISFARNVMGWYRQATGKERELVAGISRRGGSTYYADSVKGRFTISRDNAKNTVYLQMNSLKPEDTAVYYCAAEYIRNGDYGLDYWGQGTQVTVSS | high polyreactivity
20 | QVQLVESGGGLVQAGGSLRLSCAASVITFVFYAMGWYRQAPGKEREFVAGITWRGGRTYYADSVKGRFTISRDNAKNTVYLQMNSLKPEDTAVYYCNARSVVLTGGDYWGQGTQVTVSS | high polyreactivity

Row | Sequence | polyreactivity (PSR sort gate)
21 | QVQLVESGGGLVQAGGSLRLSCAASVITVRSYAMGWYRQAPGKERELVARISTDADTYYADSVKGRFTISRDNAKITVYLHMNSLKPEDTAVYYCAAEDYWDFDYWGQGTQVTVSS | low polyreactivity
22 | QVQLVESGGGLVQAGGSLRLSCAASVITYFVYAMGWYRQAPGKERELVAAITSGDSTSYADSVKGRFTISRDNAKNTVYLQMNSLKPEDTAVYYCAAEQVTIEDGVYFDFNSWGQGTQVTVSS | low polyreactivity
23 | QVQLVESGGGLVQAGGSLRLSCAASVKIFAWYALGWYRKAPGKEMELVADISSRGGSTYYADSVKGRFTISRDNAKNTVYLQMNSLKPEDTAVYYCAAVWYWTQDYDYWGQGTQVTGSS | low polyreactivity
24 | QVQLVESGGGLVQAGGSLRLSCAASVLTFVDYAMGWYRQAPGKERELVAAITSSGGSITYYADSVKGRFTISRDNAKNTVYLQMNSLKPEDTAVYYCNADYGIYTDSFRGQDYESWGQGTQVTVSS | low polyreactivity
25 | QVQLVESGGGLVQAGGSLRLSCAASVNIFQSYTMGWYRQAPGKERELVARITARGGRTYYADSVQGRFTISRDNANNTVYLQMNSLKPEDTAFYYCAAQHRGPYGVDYWGQGTQVTVSS | high polyreactivity
26 | QVQLVESGGGLVQAGGSLRLSCAASVNIFSFYAMGWNRQAPGKERELVAAIIWSGGDTYYADSVKGRFTISLDNAKNTVYLQMNSLKPEDTAVYYCAAEYYYQYYPGGYDYWGQGSQVTVSS | high polyreactivity
27 | QVQLVESGGGLVQAGGSLRLSCAASVRIFGYYAMGWNRQAPGTERELVATINSVGSTNYADSVKGRFTISRDNAKNTVYLQMNSLKPEDTAVYYCATDSAYTFFTYRLWRHGYWGQGTQVTVSS | low polyreactivity
28 | QVQLVESGGGLVQAGGSLRLSCAASVRIFPIYAMGWYRQAPGKERELVAAIDSGGSTTYADSVKGRFTISRDNAKNTVYLQMNSLKPEDTAVYYCSAKGAYPYWYPVAYRYDYWGQGTQVTVSS | low polyreactivity
29 | QVQLVESGGGLVQAGGSLRLSCAASVRIFSGYAMGWYRQAPGKERELVAAISQRGGSTTYADSVKGRFTISRDNAKNTVYLQMNSLKPEDTAVYYCAKRYTYPSGYDYWGQGTQVTVSS | low polyreactivity
30 | QVQLVESGGGLVQAGGSLRLSCAASVRIFVYYAMGWYRQAPGKERELVASISYSGASTYYADSVKGRFTISRDNAKKTVYLQMNSLKPEDTAVYYCNTDGDDFFHVIYDYWGQGTQVTVSS | low polyreactivity
31 | QVQLVESGGGLVQAGGSLRLSCAASVRIYGSNVMGWYRQAPGKERELVASISSGGTTYYADSVKGRFTISRDNAKNTVYLQMNSLKPEDTAVYYCAKQWTRIYQYRWYPGTRTGYDYWGQGTQVTVSS | high polyreactivity
32 | QVQLVESGGGLVQAGGSLRLSCAASVRTFYRYAMGGYRQAPGKERELDAGISWRGGSTYYADSVKGRFTISRDNAKNTVYLQMNSLKPEDTAVYYCNAVTTPARTRLFKTVPYEYWGQGTQVTVSS | high polyreactivity
33 | QVQLVESGGGLVQAGGSLRLSCAASVRTFYYYAMGWYRQAPGKERELVAAIRWSTGSTYYADSVKGRFTISRDNAQNTVYLQMNSLKPEDTAVYYCAADTWYIQWGYYWGQGTQVTVSS | low polyreactivity
34 | QVQLVESGGGLVQAGGSLRLSCAASVRTMRTYTMGWYRQAPGIERELVAAISSSDDSTYYADSVKGRFTISRDNEKNTVYLQMNSLKPEDTAVYYCAKDGLYPTEYGYWGQGTQVTVSS | high polyreactivity
35 | QVQLVESGGGLVQAGGSLRLSCAASVRTSSKYALGWYRQAPGKERELVAGISASGTRTYYADSVKGRFTISRDNAKNTVYLQMNSLKPEDTAVYYCATSFFWYYYWGQGTQVTVSS | high polyreactivity
36 | QVQLVESGGGLVQAGGSLRLSCAASVRTVDSYTMGWYRQAPGKERELVAAIRSSGGRTYADSVKGRFTISRDNAKNTVYLQMNSLKPEDTAVYYCAAARSYWAKYYYWGQGTQVTVSS | high polyreactivity
37 | QVQLVESGGGLVQAGGSLRLSCAASVSIFETYAMGWSRQAPGKERELDAAISSSGGTTYYADSVKGRFTISRDTAKNTVYLQMNSLKPEDTAVYYCAARSAATHWTFLFYYDFDYWGQGTQVTVSS | low polyreactivity
38 | QVQLVESGGGLVQAGGSLRLSCAASVSIFFSYAMGWYRQAPGKERELVASITWSGDTTYYADSVKGRFTISRDNAKNTVYLQMNSLKPEDTAVYYCAAVNRGGYDYWGQGTQVTVSS | low polyreactivity
39 | QVQLVESGGGLVQAGGSLRLSCAASVSIFGSNAMRWYRQAPGKERELVAVITNGGRTYYADSVKGRFTISRDNAKNTVFLQMNSLKPEDTAVYYCAASRVYGWYGSYSTYGSWGQGTQVTVSS | high polyreactivity
40 | QVQLVESGGGLVQAGGSLRLSCAASVSIFGYNTMGRYRQAPGKERELVARIRASGGSTYYADSVKGRFTISRDNAKNTVYLQMNSLKPEDTAVYYCAKYLRGSWVRQFGSTYDYWGQGTQVTVSS | high polyreactivity
